{"source": "paper PMC6310800", "about": "“Exploiting correlated molecular-dynamics networks to counteract enzyme activity–stability trade-off” (Proceedings of the National Academy of Sciences of the …, 2018)", "proteins": {"B1": {"name": "transketolase (TK) (Escherichia coli K-12; A282P/D469T/G506A/H192P/I365L/R520Q/S385Y) (protein)", "chain": "MSSRKELANAIRALSMDAVQKAKSGHPGAPMGMADIAEVLWRDFLKHNPQNPSWADRDRFVLSNGHGSMLIYSLLHLTGYDLPMEELKNFRQLHSKTPGHPEVGYTAGVETTTGPLGQGIANAVGMAIAEKTLAAQFNRPGHDIVDHYTYAFMGDGCMMEGISHEVCSLAGTLKLGKLIAFYDDNGISIDGPVEGWFTDDTAMRFEAYGWHVIRDIDGHDAASIKRAVEEARAVTDKPSLLMCKTIIGFGSPNKAGTHDSHGAPLGDAEIALTREQLGWKYPPFEIPSEIYAQWDAKEAGQAKESAWNEKFAAYAKAYPQEAAEFTRRMKGEMPSDFDAKAKEFIAKLQANPAKIASRKASQNALEAFGPLLPEFLGGSADLAPYNLTLWSGSKAINEDAAGNYIHYGVREFGMTAIANGISLHGGFLPYTSTFLMFVEYARNAVRMAALMKQRQVMVYTHDSIGLGETGPTHQPVEQVASLRVTPNMSTWRPCDQVESAVAWKYAVERQDGPTALILSQQNLAQQERTEEQLANIARGGYVLKDCAGQPELIFIATGSEVELAVAAYEKLTAEGVKARVVSMPSTDAFDKQDAAYRESVLPKAVTARVAVEAGIADYWYKYVGLNGAIVGMTTFGESAPAELLFEEFGFTVDNVVAKAKELL", "notes": "recombinant from plasmid pQR791, purified; homodimer"}, "B2": {"name": "transketolase (TK) (Escherichia coli K-12; D469T/R520Q/S385Y) (protein)", "chain": "B1 chain with P192H, P282A, L365I, A506G", "notes": "as for B1"}, "B3": {"name": "transketolase (TK) (Escherichia coli K-12; A282P/D469T/R520Q/S385Y) (protein)", "chain": "B1 chain with P192H, L365I, A506G", "notes": "as for B1"}, "B4": {"name": "transketolase (TK) (Escherichia coli K-12; A282P/D469T/H192P/R520Q/S385Y) (protein)", "chain": "B1 chain with L365I, A506G", "notes": "as for B1"}, "B5": {"name": "transketolase (TK) (Escherichia coli K-12; A282P/D469T/G506A/H192P/R520Q/S385Y) (protein)", "chain": "B1 chain with L365I", "notes": "as for B1"}, "B6": {"name": "transketolase (TK) (Escherichia coli K-12; A282P/D469T/H192P/I365L/R520Q/S385Y) (protein)", "chain": "B1 chain with A506G", "notes": "as for B1"}, "B7": {"name": "transketolase (TK) (Escherichia coli K-12; D469T/H192P/R520Q/S385Y) (protein)", "chain": "B1 chain with P282A, L365I, A506G", "notes": "as for B1"}}, "note": "Positions count from the first letter of the chain named. Numbers in names are those of the source."}
{"substrate": "O=Cc1cccc(C(=O)O)c1", "test": "initial rates by HPLC, Michaelis-Menten fit", "type": "biochemical, Escherichia coli", "details": "50 mM Li-hydroxypyruvate, 50 mM Tris-HCl pH 7.0, 2.4 mM ThDP, 9 mM MgCl2, 22 °C", "source_text": "initial rates by HPLC, Michaelis-Menten fit on transketolase (TK)", "units": {"kcat": "s⁻¹", "kcat/Km": "M⁻¹ s⁻¹"}}
{"protein": "B1", "Km": "2.3 (0.3) mM", "kcat": 3.8, "kcat/Km": 1650}
{"protein": "B2", "Km": "2.3 (0.3) mM", "kcat": 2.8, "kcat/Km": 1220}
{"protein": "B3", "Km": "2.1 (0.2) mM", "kcat": 3.2, "kcat/Km": 1520}
{"protein": "B4", "Km": "1.3 (0.2) mM", "kcat": 2.9, "kcat/Km": 2230}
{"protein": "B5", "Km": "2.7 (0.4) mM", "kcat": 3.9, "kcat/Km": 1440}
{"protein": "B6", "Km": "1.3 (0.4) mM", "kcat": 2.1, "kcat/Km": 1620}
{"protein": "B7", "Km": "2.2 (0.4) mM", "kcat": 3.5, "kcat/Km": 1590}
